Experimental data reported in paper PMC11985968 (Nature Communications, 2025).
Several values for one entry are separate records, joined by “and”; a condition that tells them apart may be missing. Identical values can stand only once.

Molecular target: T1, Mycobacterium tuberculosis UvrA (Mycobacterium tuberculosis, UniProt P9WQK7 1-972)
T1 sequence: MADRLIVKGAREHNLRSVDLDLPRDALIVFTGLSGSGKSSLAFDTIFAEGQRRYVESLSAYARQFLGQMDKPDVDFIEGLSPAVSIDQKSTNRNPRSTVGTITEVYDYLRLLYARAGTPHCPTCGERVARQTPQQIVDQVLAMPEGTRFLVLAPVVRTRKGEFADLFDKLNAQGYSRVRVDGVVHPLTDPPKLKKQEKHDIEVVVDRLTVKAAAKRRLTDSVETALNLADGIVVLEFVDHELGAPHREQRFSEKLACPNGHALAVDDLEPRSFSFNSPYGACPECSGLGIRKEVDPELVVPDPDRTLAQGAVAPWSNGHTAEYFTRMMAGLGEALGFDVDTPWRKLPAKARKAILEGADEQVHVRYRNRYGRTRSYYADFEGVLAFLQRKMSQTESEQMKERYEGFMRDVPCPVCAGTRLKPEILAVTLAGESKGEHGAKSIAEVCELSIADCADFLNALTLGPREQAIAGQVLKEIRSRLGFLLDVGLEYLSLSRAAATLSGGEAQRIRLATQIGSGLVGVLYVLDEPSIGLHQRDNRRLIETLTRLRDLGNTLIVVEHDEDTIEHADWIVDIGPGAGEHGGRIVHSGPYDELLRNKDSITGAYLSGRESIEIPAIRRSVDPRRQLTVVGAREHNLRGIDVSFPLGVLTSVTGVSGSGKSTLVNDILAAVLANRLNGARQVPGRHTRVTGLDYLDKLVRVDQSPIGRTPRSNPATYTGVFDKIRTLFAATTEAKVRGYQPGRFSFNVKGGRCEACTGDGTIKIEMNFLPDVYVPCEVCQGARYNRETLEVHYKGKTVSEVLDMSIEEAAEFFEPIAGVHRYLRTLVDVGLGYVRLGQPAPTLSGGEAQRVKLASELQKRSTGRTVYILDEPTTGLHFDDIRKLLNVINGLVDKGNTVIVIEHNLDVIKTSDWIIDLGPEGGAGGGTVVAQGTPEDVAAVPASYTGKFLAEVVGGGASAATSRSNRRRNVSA
Experiment: cryo-EM structure

B1: Mycobacterium tuberculosis UvrB (enzyme)
chain: VRAGGHFEVVSPHAPAGDQPAAIDELERRINAGERDVVLLGATGTGKSATTAWLIERLQRPTLVMAPNKTLAAQLANELREMLPHNAVEYFVSYYDYYQPEAYIAQTDTYIEKDSSINDDVERLRHSATSALLSRRDVVVVASVSCIYGLGTPQSYLDRSVELKVGEEVPRDGLLRLLVDVQYTRNDMSFTRGSFRVRGDTVEIIPSYEELAVRIEFFGDEIEALYYLHPLTGEVIRQVDSLRIFPATHYVAGPERMAHAVSAIEEELAERLAELESQGKLLEAQRLRMRTNYDIEMMRQVGFCSGIENYSRHIDGRGPGTPPATLLDYFPEDFLLVIDESHVTVPQIGGMYEGDISRKRNLVEYGFRLPSACDNRPLTWEEFADRIGQTVYLSATPGPYELSQTGGEFVEQVIRPTGLVDPKVVVKPTKGQIDDLIGEIRTRADADQRVLVTTLTKKMAEDLTDYLLEMGIRVRYLHSEVDTLRRVELLRQLRLGDYDVLVGINLLREGLDLPEVSLVAILDADKEGFLRSSRSLIQTIGRAARNVSGEVHMYADKITDSMREAIDETERRRAKQIAYNEANGIDPQPLRKKIADILDQVYREADDTAVVEVGGSGRNASRGRRAQGEPGRAVSAGVFEGRDTSAMPRAELADLIKDLTAQMMAAARDLQFELAARFRDEIADLKRELRGMDAAGLK
stoichiometry N: 1 UvrB per UvrA dimer and 2 UvrB per UvrA dimer
